Here are results for one molecule from patent US20040009898A1 (UNIVERSITY OF IOWA RESEARCH FOUNDATION, published 2004).

For this assay, the target named is urokinase plasminogen activator receptor (uPAR) on differentiated human airway epithelia (human, UniProt Q03405 23-305, GPI-linked). The experiment in a line: cell-based or functional assay.

No end group written: not given here.

urokinase plasminogen activator receptor (uPAR) on differentiated human airway epithelia, sequence (Q03405 23-305): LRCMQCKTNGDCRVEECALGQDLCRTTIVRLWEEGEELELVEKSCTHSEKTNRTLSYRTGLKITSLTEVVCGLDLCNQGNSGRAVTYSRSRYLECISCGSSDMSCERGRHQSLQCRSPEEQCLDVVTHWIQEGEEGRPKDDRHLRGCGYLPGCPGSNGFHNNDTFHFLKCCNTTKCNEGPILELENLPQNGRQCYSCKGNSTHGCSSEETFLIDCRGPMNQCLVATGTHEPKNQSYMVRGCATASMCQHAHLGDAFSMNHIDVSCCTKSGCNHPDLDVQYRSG

B1: u7-peptide coupled through PEG to the capsid of adenovirus Ad2/βgal-4 (other)
peptide: CLNGGTC
modifications: not fully specified; also: coupled through bifunctional PEG to adenovirus capsid, terminal Cys with free sulfhydryl used for coupling
Regarding B1, the “gene transfer (β-galactosidase) to human airway epithelia” value was 10 fold.
